Data as given in publication PMC3683064 (PLoS ONE, 2013).

Key:
Lcc7 = biological target: T1, Lcc7 (Lentinula edodes, UniProt R9WS76); experiment: ABTS oxidation in presence of co-solvent; format: biochemical; conditions: 1 mM ABTS, 1x McIlvaine buffer pH 4, 30 °C; co-solvent effect, non-specific
T1 construct: full cDNA ORF (560 residues) in pPIC3.5K, secreted from Pichia pastoris GS115 and purified; signal peptide predicted
T1 sequence (R9WS76 30-560): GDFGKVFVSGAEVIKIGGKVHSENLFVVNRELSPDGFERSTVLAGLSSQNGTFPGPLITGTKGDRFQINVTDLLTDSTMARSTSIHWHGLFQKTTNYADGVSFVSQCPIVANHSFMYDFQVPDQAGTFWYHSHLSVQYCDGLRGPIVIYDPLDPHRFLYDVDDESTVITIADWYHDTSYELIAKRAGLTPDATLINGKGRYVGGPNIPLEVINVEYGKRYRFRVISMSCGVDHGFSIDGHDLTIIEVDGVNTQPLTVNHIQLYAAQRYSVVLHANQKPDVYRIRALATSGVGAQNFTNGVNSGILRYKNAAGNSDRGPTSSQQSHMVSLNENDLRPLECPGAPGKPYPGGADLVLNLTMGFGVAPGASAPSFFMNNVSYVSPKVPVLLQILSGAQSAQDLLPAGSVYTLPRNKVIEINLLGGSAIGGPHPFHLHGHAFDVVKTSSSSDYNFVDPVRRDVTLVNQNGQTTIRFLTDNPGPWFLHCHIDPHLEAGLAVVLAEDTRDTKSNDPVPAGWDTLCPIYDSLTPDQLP
Excerpt: ABTS oxidation in presence of co-solvent on Lcc7

Lcc5 = biological target: T2, Lcc5 (Lentinula edodes, UniProt R9WU11); experiment: ABTS oxidation in presence of co-solvent; format: biochemical; conditions: 1 mM ABTS, 1x McIlvaine buffer pH 4, 30 °C; co-solvent effect, non-specific
T2 construct: full cDNA ORF (515 residues) in pPIC3.5K, secreted from Pichia pastoris GS115 and purified; signal peptide predicted
T2 sequence (R9WU11 22-515): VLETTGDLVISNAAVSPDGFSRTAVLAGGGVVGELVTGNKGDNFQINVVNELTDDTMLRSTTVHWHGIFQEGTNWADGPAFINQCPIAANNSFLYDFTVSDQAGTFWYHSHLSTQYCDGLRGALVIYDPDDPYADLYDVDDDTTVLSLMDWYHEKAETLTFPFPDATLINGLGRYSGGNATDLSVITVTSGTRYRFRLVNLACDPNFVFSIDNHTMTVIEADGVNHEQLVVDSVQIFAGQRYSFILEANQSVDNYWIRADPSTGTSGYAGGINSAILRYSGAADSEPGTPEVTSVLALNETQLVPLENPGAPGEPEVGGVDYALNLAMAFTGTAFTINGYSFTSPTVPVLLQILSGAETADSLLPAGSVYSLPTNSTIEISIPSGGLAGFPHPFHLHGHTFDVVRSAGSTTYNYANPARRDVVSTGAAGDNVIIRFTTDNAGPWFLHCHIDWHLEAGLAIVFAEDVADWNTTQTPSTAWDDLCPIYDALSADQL
Excerpt: ABTS oxidation in presence of co-solvent on Lcc5

Lcc4A = biological target: T3, Lcc4A (Lentinula edodes, UniProt R9WT55); experiment: ABTS oxidation in presence of co-solvent; format: biochemical; conditions: 1 mM ABTS, 1x McIlvaine buffer pH 4, 30 °C; co-solvent effect, non-specific
T3 construct: full cDNA ORF (527 residues) in pPIC3.5K, secreted from Pichia pastoris GS115 and purified; signal peptide predicted
T3 sequence (R9WT55 18-527): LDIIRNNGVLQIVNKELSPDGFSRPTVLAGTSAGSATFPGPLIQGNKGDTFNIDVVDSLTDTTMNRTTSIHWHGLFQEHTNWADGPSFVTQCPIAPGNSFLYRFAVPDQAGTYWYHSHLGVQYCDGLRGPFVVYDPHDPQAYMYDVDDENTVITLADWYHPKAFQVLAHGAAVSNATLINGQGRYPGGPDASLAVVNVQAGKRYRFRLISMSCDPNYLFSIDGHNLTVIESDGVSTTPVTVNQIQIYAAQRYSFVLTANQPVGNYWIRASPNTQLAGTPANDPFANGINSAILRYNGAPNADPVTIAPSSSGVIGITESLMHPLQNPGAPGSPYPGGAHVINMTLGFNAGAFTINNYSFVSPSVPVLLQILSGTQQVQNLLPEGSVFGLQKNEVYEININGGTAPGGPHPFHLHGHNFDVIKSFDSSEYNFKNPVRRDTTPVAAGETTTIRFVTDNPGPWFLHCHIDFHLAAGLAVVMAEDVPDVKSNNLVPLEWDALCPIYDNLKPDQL
Excerpt: ABTS oxidation in presence of co-solvent on Lcc4A

purified protein [1] = substrate: COc1ccccc1O; experiment: purified protein; conditions: 1x McIlvaine buffer pH 4, 30 °C
[2] = substrate: COc1cccc(OC)c1O; experiment: spectrophotometric oxidation assay; format: biochemical, Lentinula edodes; conditions: 1x McIlvaine buffer pH 4, 30 °C
Excerpt: (§1) spectrophotometric oxidation assay on Lcc4A

[3] = substrate: N[C@@H](Cc1ccc(O)c(O)c1)C(=O)O; experiment: spectrophotometric oxidation assay; format: biochemical, Lentinula edodes; conditions: 1x McIlvaine buffer pH 4, 30 °C
Excerpt: as §1

[4] = substrate: Oc1ccccc1O; experiment: spectrophotometric oxidation assay; format: biochemical, Lentinula edodes; conditions: 1x McIlvaine buffer pH 4, 30 °C
Excerpt: as §1

purified protein [5] = substrate: CCn1c(=NN=c2sc3cc(S(=O)(=O)O)ccc3n2CC)sc2cc(S(=O)(=O)O)ccc21; experiment: purified protein; format: biochemical, Lentinula edodes; conditions: 1x McIlvaine buffer pH 4, 30 °C
[6] = substrate: COc1cccc(OC)c1O; experiment: spectrophotometric oxidation assay; format: biochemical, Lentinula edodes; conditions: 1x McIlvaine buffer pH 4, 30 °C; remark: listed apart in the source
Excerpt: (§2) spectrophotometric oxidation assay on Lcc5

[7] = substrate: N[C@@H](Cc1ccc(O)c(O)c1)C(=O)O; experiment: spectrophotometric oxidation assay; format: biochemical, Lentinula edodes; conditions: 1x McIlvaine buffer pH 4, 30 °C; remark: listed apart in the source
Excerpt: as §2

[8] = substrate: Oc1ccccc1O; experiment: spectrophotometric oxidation assay; format: biochemical, Lentinula edodes; conditions: 1x McIlvaine buffer pH 4, 30 °C; remark: listed apart in the source
Excerpt: as §2

[9] = substrate: COc1cccc(OC)c1O; experiment: spectrophotometric oxidation assay; format: biochemical, Lentinula edodes; conditions: 1x McIlvaine buffer pH 4, 30 °C; remark: listed apart in the source
Excerpt: (§3) spectrophotometric oxidation assay on Lcc7

[10] = substrate: Oc1ccccc1O; experiment: spectrophotometric oxidation assay; format: biochemical, Lentinula edodes; conditions: 1x McIlvaine buffer pH 4, 30 °C; remark: listed apart in the source
Excerpt: as §3

In the case of CCO [EtOH], the “IC50 ^d (v/v %) / EtOH” value (Lcc7) is reported as 22 v/v % and the “IC50 ^d (v/v %) / ACN” value (Lcc5) is reported as 18 v/v %.

CO [MeOH] was tested, and the “IC50 ^d (v/v %) / MeOH” value (Lcc4A) was 28 v/v %.

CC#N [ACN] was tested, and the “IC50 ^d (v/v %) / ACN” value (Lcc4A) was 30 v/v %, the “IC50 ^d (v/v %) / ACN” value (Lcc7) was 17 v/v % and the “IC50 ^d (v/v %) / ACN” value (Lcc5) was 18 v/v %.

B1: Lcc4A (Lentinula edodes) (protein)
chain: T3 sequence (R9WT55 18-527)
notes: full cDNA ORF (527 residues) in pPIC3.5K, secreted from Pichia pastoris GS115 and purified; signal peptide predicted
In the case of B1, the Km (purified protein [1]) is reported as 648 ± 105 µM, the Vmax (purified protein [1]) is reported as 0.16 µmol/min/mg and the Vmax/Km (purified protein [1]) is reported as 246 µL/min/mg. For the same molecule, the Km [2] was 26.0 ± 2.4 µM, the Vmax [2] was 0.26 µmol/min/mg and the Vmax/Km [2] was 10000 µL/min/mg. The Km [3] was 1040 ± 150 µM, the Vmax [3] was 1.07 µmol/min/mg and the Vmax/Km [3] was 1030 µL/min/mg. For the same molecule, the Km [4] was 255 ± 76 µM, the Vmax [4] was 0.91 µmol/min/mg and the Vmax/Km [4] was 3720 µL/min/mg. It also gave a Km (purified protein [5]) of 11.2 ± 0.9 µM, a Vmax (purified protein [5]) of 0.61 µmol/min/mg and a Vmax/Km (purified protein [5]) of 54400 µL/min/mg.

B2: Lcc5 (Lentinula edodes) (protein)
chain: T2 sequence (R9WU11 22-515)
notes: full cDNA ORF (515 residues) in pPIC3.5K, secreted from Pichia pastoris GS115 and purified; signal peptide predicted
For B2, the Km (purified protein [1]) was 1270 ± 90 µM, the Vmax (purified protein [1]) was 0.32 µmol/min/mg and the Vmax/Km (purified protein [1]) was 257 µL/min/mg. For the same molecule, the Km (purified protein [5]) was 325 ± 47 µM, the Vmax (purified protein [5]) was 2.26 µmol/min/mg and the Vmax/Km (purified protein [5]) was 6940 µL/min/mg. The Km [6] was 113 ± 8 µM, the Vmax [6] was 0.6 µmol/min/mg and the Vmax/Km [6] was 5300 µL/min/mg. The Km [7] was 10500 ± 700 µM, the Vmax [7] was 1.66 µmol/min/mg and the Vmax/Km [7] was 158 µL/min/mg. For the same molecule, the Km [8] was 6280 ± 680 µM, the Vmax [8] was 2.65 µmol/min/mg and the Vmax/Km [8] was 424 µL/min/mg.

B3: Lcc7 (Lentinula edodes) (protein)
chain: T1 sequence (R9WS76 30-560)
notes: full cDNA ORF (560 residues) in pPIC3.5K, secreted from Pichia pastoris GS115 and purified; signal peptide predicted
B3 showed a Km (purified protein [1]) of 8630 ± 2120 µM, a Vmax (purified protein [1]) of 0.18 µmol/min/mg and a Vmax/Km (purified protein [1]) of 21.4 µL/min/mg. It also gave a Km (purified protein [5]) of 36.3 ± 1.9 µM, a Vmax (purified protein [5]) of 19.7 µmol/min/mg and a Vmax/Km (purified protein [5]) of 543000 µL/min/mg. For the same molecule, the Km [9] was 12000 ± 1000 µM, the Vmax [9] was 1.73 µmol/min/mg and the Vmax/Km [9] was 144 µL/min/mg. For the same molecule, the Km [10] was 38800 ± 5300 µM, the Vmax [10] was 0.53 µmol/min/mg and the Vmax/Km [10] was 13.8 µL/min/mg.
